This is an account of results in paper PMC3781937 (Molecular microbiology, 2013).

B1: YmcA (GST tag removed) (natural protein, Bacillus subtilis, UniProt O31779 1-143, looked up)
chain: MTLYSKKDIVQQARNLAKMISETEEVDFFKRAEAQINENDKVSTIVNQIKALQKQAVNLKHYEKHEALKQVEAKIDALQEELEEIPVIQEFRDSQMEVNDLLQLVAHTISNQVTNEIITSTGGDLLKGETGSKVKHSNNSCSL
B2: YmcA-T25 (natural protein, Bacillus subtilis, UniProt O31779 1-143, looked up)
chain: B1 chain
B3: YlbF (GST tag removed, in the co-purified complex) (natural protein, Bacillus subtilis, UniProt O34412 1-149, looked up)
chain: MYATMESVRLQSEAQQLAEMILQSETAENYRNCYKRLQEDEEAGRIIRSFIKIKEQYEDVQRFGKYHPDYREISRKMREIKRELDLNDKVADFKRAENELQSILDEVSVEIGTAVSEHVKVPTGNPYFDGLSSCGGGCGSGGSCGCKVS

The target of series [1] is B3. Put plainly: SEC.
For series [2], the target named is T1, YaaT (His6-SUMO tag removed, in the co-purified complex) (Bacillus subtilis, UniProt P37541 1-275).
T1 sequence (looked up): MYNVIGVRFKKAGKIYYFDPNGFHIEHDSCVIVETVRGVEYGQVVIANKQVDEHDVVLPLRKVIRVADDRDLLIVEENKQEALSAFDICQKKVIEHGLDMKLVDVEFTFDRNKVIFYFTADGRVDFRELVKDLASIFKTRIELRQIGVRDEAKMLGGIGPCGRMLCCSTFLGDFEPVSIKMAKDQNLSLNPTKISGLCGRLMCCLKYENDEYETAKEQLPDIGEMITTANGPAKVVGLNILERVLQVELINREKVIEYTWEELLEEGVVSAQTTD
Put plainly: SEC. In general terms: SEC sorts molecules by how far they enter the pores of the column.

In series [3] the target is T2, T18-Spo0F (Bacillus subtilis, UniProt P06628 1-124).
T2 sequence (looked up): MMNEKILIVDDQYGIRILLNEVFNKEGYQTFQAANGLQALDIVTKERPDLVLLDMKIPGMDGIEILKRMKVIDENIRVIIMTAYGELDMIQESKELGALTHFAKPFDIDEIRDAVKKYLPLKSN
Put plainly: two-hybrid.

Series [4] deals with the molecule itself. Put plainly: two-hybrid.

Regarding B1, the “stoichiometry N” value in series [1] and in series [2] was 2.2 fold in each case. For B2, the “β-galactosidase activity, ratio above the T18–T25 negative control” value in series [3] was 11.3 ratio above the T18–T25 negative control; in series [4], 48.3 ratio above the T18–T25 negative control. Take B3: the binding result in series [2] is recorded as “binds”.

Broadly, the stoichiometry N is a count of units in the complex or per binding partner.
